# B1: STAM-binding protein (Homo sapiens), O95630 (parent)
# chain: MSDHGDVSLPPEDRVRALSQLGSAVEVNEDIPPRRYFRSGVEIIRMASIYSEEGNIEHAFILYNKYITLFIEKLPKHRDYKSAVIPEKKDTVKKLKEIAFPKAEELKAELLKRYTKEYTEYNEEKKKEAEELARNMAIQQELEKEKQRVAQQKQQQLEQEQFHAFEEMIRNQELEKERLKIVQEFGKVDPGLGGPLVPDLEKPSLDVFPTLTVSSIQPSDCHTTVRPAKPPVVDRSLKPGALSNSESIPTIDGLRHVVVPGRLCPQFLQLASANTARGVETCGILCGKLMRNEFTITHVLIPKQSAGSDYCNTENEEELFLIQDQQGLITLGWIHTHPTQTAFLSSVDLHTHCSYQMMLPESVAIVCSPKFQETGFFKLTDHGLEEISSCRQKGFHPHSKDPPLFCSCSHVTVVDRAVTITDLR
# Variants of: B1
# Conditions: with stam2_human STAM2, O75886
row,Variant,effect of a mutation on the interaction
1,MSDHGDVSLPPEDRVRALSQLGSAVEVNEDIPPRRYFRSGVEIIRMASIYSEEGNIEHAFILYNKYITLFIEKLPKHRDYKSAVIPEKKDTVKKLKEIAFPKAEELKAELLKRYTKEYTEYNEEKKKEAEELARNMAIQQELEKEKQRVAQQKQQQLEQEQFHAFEEMIRNQELEKERLKIVQEFGKVDPGLGGPLVPDLEKPSLDVFPTLTVSSIQPSDCHTTVRPAHPPVVDRSLKPGALSNSESIPTIDGLRHVVVPGRLCPQFLQLASANTARGVETCGILCGKLMRNEFTITHVLIPKQSAGSDYCNTENEEELFLIQDQQGLITLGWIHTHPTQTAFLSSVDLHTHCSYQMMLPESVAIVCSPKFQETGFFKLTDHGLEEISSCRQKGFHPHSKDPPLFCSCSHVTVVDRAVTITDLR [K229H],with no effect
2,MSDHGDVSLPPEDRVRALSQLGSAVEVNEDIPPRRYFRSGVEIIRMASIYSEEGNIEHAFILYNKYITLFIEKLPKHRDYKSAVIPEKKDTVKKLKEIAFPKAEELKAELLKRYTKEYTEYNEEKKKEAEELARNMAIQQELEKEKQRVAQQKQQQLEQEQFHAFEEMIRNQELEKERLKIVQEFGKVDPGLGGPLVPDLEKPSLDVFPTLTVSSIQPSDCHTTVRPAKPPVVDRSLTPGALSNSESIPTIDGLRHVVVPGRLCPQFLQLASANTARGVETCGILCGKLMRNEFTITHVLIPKQSAGSDYCNTENEEELFLIQDQQGLITLGWIHTHPTQTAFLSSVDLHTHCSYQMMLPESVAIVCSPKFQETGFFKLTDHGLEEISSCRQKGFHPHSKDPPLFCSCSHVTVVDRAVTITDLR [K238T],decreasing interaction
